In the supplement of paper PMC10126150:
± gives the standard deviation of the averaged measurements.

tested on: ATP; assay: switch fluorescence ratio, 500 uM ATP over buffer (Cy3 cluster intensity, sum of 5 cycles each) (fold (ratio)); higher = stronger signal-on switching upon ATP binding; sequences stand for … in TCGTCGGCAGCGTCAGATGTGTATAAGAGACAGTTTTTTTTTTTTTTTTTTTTTTTTT…TC; conditions: aptamer strand: ATP DNA aptamer (quencher-CACCTGGGGGAGTATTGCGGAGGAAGG + anchor), 100 nM annealed; ATP concentration: 500 uM
Procedure, shortened: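 Cy3-labelled switching-strand clusters on a modified Illumina MiSeq flow-cell were annealed to 100 nM quencher-labelled ATP aptamer and imaged first in selection buffer, then after 15 min with 500 uM ATP at 22 °C. NaOH stripping and re-annealing separated each of five buffer/ATP cycles, and clusters outside 100-1000 RFU were excluded. The fluorescence ratio sums target-cycle Cy3 intensity over buffer-cycle Cy3 intensity per cluster and averages it per switch-domain sequence.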
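Further: ATP exposure 15 min at 22 °C before imaging.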

Sequence	switch fluorescence ratio
CGAGAGGGGA	1.03 ± 0.02
TTCTTGGGGG	1.01 ± 0.029
TTCATAATGT	0.9632 ± 0.0096
GGGGGCATCA	1.07 ± 0.12
ATTTATGGTG	0.973 ± 0.031
GGTATGGGGG	1.02 ± 0.031
ATAGAGGAGA	0.992 ± 0.048
TTTTAAAACT	1.05 ± 0.039
GTGCCTCCTG	1.03 ± 0.018
TTGCACCATT	1.05 ± 0.12
GAAGGGGCCG	1.12 ± 0.07
ATTTAAGGAC	1.04 ± 0.032
AGTGTCCTGG	0.986 ± 0.013
GGGGTTATTG	0.986 ± 0.038
CATATAATTC	0.975 ± 0.042
GCCCCACCTG	1.05 ± 0.029
TGAATCCGGG	1 ± 0.038
AAGTGCGGCG	1.03 ± 0.029
TAGTGGAGTG	1 ± 0.011
GGGCATTTTG	0.998 ± 0.015
GCGTCGAACA	0.999 ± 0.068
TTAAGAGGGT	0.997 ± 0.015
AAATATCTCA	1.02 ± 0.013
GCGGCTGCTG	1.04 ± 0.062
GTTTTTAGAC	1.03 ± 0.014

Sequence	switch fluorescence ratio
GAATCCGTAG	1.16 ± 0.03
CGGGATATAA	0.989 ± 0.022
TGGTTAAGGT	0.982 ± 0.033
TATTTGGAGT	1.012 ± 0.0022
ACATAATTGA	1.03 ± 0.017
TACTCATGGG	1.01 ± 0.035
TGGGCTATTT	0.964 ± 0.017
GAGGCCGGGG	0.9956 ± 0.0026
AGGGAGTTTT	1.01 ± 0.026
TGGCACCTTT	1.11 ± 0.036
TTGTGTGGGC	1.04 ± 0.047
TGGGAGACGG	1.2 ± 0.38
CGAGTTGTTG	1.014 ± 0.0072
CTGGTATACG	1.06 ± 0.055
TCCTGGGGGA	1.15 ± 0.22
AGGGAGGTTT	0.944 ± 0.073
AATATCTTGC	1.05 ± 0.028
TAAAAGCTTT	1.02 ± 0.029
CCATGGTTAT	1.026 ± 0.0034
GACGATAGAT	1.048 ± 0.00083
CTTAGGGGGA	1 ± 0.012
TTAAGGGGTA	1 ± 0.019
AGGAACGCGC	1.02 ± 0.027
TGGAACTTTT	0.974 ± 0.021
GTGGTCTGTG	0.972 ± 0.018

Sequence	switch fluorescence ratio
TGGGAGGGAG	0.987 ± 0.028
GTAAATTTGC	1.01 ± 0.013
ACGTCGCCGG	0.987 ± 0.038
AACTTAAATT	1.01 ± 0.021
TTTCGTGGTT	0.937 ± 0.021
CCGTTGTCTT	1.03 ± 0.025
AGTTAGTTGT	1 ± 0.028
TATCGGGTCG	1.12 ± 0.13
TAGGGTTTTG	1.01 ± 0.042
CAAGTTATAA	0.994 ± 0.023
TTGTGGTTTG	0.992 ± 0.034
AAAGCAGTAT	1.14 ± 0.068
TAATTTATCG	1.04 ± 0.038
TTTTTAATAG	0.9855 ± 0.002
CTGTAGGGGC	1.09 ± 0.062
TAGTATGGGT	0.9692 ± 0.0077
CAGGTGTGGC	1.11 ± 0.013
TCGTGTTTCA	1 ± 0.014
CATTGCATTT	1.3 ± 0.4
CGTATTGGGC	0.9577 ± 0.0065
TGAGAAGCAA	1.34 ± 0.056
CTGGCACTGG	1.016 ± 0.0056
TAAAATACTT	1.11 ± 0.16
TTTGATAGAT	0.977 ± 0.012
GGGGAGGTGT	1.05 ± 0.066

Sequence	switch fluorescence ratio
CAAGAGGGTT	0.99 ± 0.032
TAAATATTTA	0.976 ± 0.05
TATTAAGAAA	0.962 ± 0.016
CGATGGTGTT	1.01 ± 0.035
ACTTCTGGCT	0.9717 ± 0.0054
AGGTTTAATT	1.01 ± 0.015
CTGCGGGAGG	1.008 ± 0.0024
CGATCGGGAT	1.12 ± 0.13
TTGCTAGGGC	1.01 ± 0.033
ACGGTCGGA	0.9979 ± 0.0048
TGGATATGAT	0.998 ± 0.0028
TTTCACGAAT	0.993 ± 0.015
ACTTTTGAAA	0.994 ± 0.014
TTTATGACGT	1 ± 0.023
GCTATTTGCG	1 ± 0.022
GGTATGAGAC	1.01 ± 0.044
AGTTTGTCAT	0.967 ± 0.032
TGCGGGGTTA	0.986 ± 0.024
GGTTTAGAGC	1.01 ± 0.02
GATGGGCTAG	0.997 ± 0.025
TTACGTTTTG	1.13 ± 0.29
TTTGAATAGA	0.992 ± 0.019
GGTAATTGGG	1.19 ± 0.27
TAACTGTCTT	0.966 ± 0.013
CCCAGATTAA	1.01 ± 0.085
